The nature of this data set: yeast display, Sf9 membrane polyspecificity reagent, FACS + sequencing; frameworks hold sequencing errors. An outline of the steps:
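In a synthetic yeast display library (Saccharomyces cerevisiae BJ5465), nanobody expression was induced with galactose for 36–48 hours. FACS gates were set low and high (top ~1%) using anti-HA fluorescence for expression and streptavidin fluorescence for binding of the Sf9 membrane reagent. Each polyreactivity label is drawn from the gate of origin.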
For “QVQLVESGGGLVQAGGSLRLSCAASGFTFTRYAMGWYRQAPGKERELVAAITTNSGSRTYYADSVKGRFTISRDNAKNTVYLQMNSLKPEDTAVYYCAADGPVVRGYYWGQGTQVTVSS”, the “polyreactivity (PSR sort gate)” value was “high polyreactivity”. As for “QVQLVESVGGLVQAGGSLRLSCAASGSIFADYAMGWYRQAPGKERELVAAMTGSGGRTYYADSVKGRFTISRDNAKNTVYLHMNSLKPEDTAVYYCAAYQVGWDPYPRYDYWGQGTQVTVSS”, the entry is “low polyreactivity”; as for “QVQLVESGGGLVQAGGSLRLSCAASGYIFYDNAMGWYRQAPGKDREFVSTYYADSVKGRFTISRDNAKNTVYLQMNSLKPEDTAVYYCAAVYSHEGYCWGQGTQVTVSS”, “low polyreactivity”. As for “QVQLVESGGGLVQAGGSLRLSCAASGIIYIGNAMGWYRQAPGKERELVAAITYTGGSTYYADSVKGRFTISRDNAKNTVYLQMNSLKPEDTAVYYCDFDRTHLEDDYWGQGTQVTVSS”, the entry is “low polyreactivity”; as for “QVQLVESGGGLVQAGGSLRLSCAASGRIFGYYVMGWYRQAPGKDRELVATISRVGTTNYADSVKGRFTISRDNAKNTVYLQMNSLKPEDTAVYYCNADYTGHRGGNDYWGQGTQVTVSS”, “low polyreactivity”.

With “QVQLQESGGGLVHAGGSLRLSCAASGTISFINMMGWNRQAPGRERELVASINFGANTNYADSVKGRFTISRDNAKNTVYVQMNSLKPEDTAVYYCAVYDFDAYTLDYWGQGTLVTVSS”, the “polyreactivity (PSR sort gate)” value was “high polyreactivity”. Turning to “QVQLVESGGGLVQAGGSLRLSCAASGSTFQYYAMGWYRQAPGKERELVAAISAGGTRTYYADSVKGRFTISRDNAKNTVYLQMNSLKPEDPAVYYCNADDLHFVARYDYWGQGTQVTVSS”, the “polyreactivity (PSR sort gate)” value was “low polyreactivity”.

On to “QVQLVESGGGLVQAGGSLRLSCAASGSTFYTNAMGWYRQAPGKERELVAAITSSVGSTHYADSVKGRFTISRDNAKNTVYIQMNSLKPEDTAVYYCAATFGYGRYGYWGQGTQVTVSS”, for which the “polyreactivity (PSR sort gate)” value was “low polyreactivity”.

Take “QVQLVESGGGLVQAGGSLRLSCAASGYIFSTYTMGWYRQAPGKERELVATITVSGGSTYYADSVKGRFTISRDNAKNTVYLQMNSLKPEDTAVYYCAALRYTFAGRFDYWGQGTQVTVSS”: the “polyreactivity (PSR sort gate)” value is recorded as “high polyreactivity”. Then “QVQLVESGGGLVQAGGSLRLSCAASGRIFGWYAMGWYRQAPGKEREFVAAITVTGGSTYYADSVKGRFTISRDNAKNTVYLQMNSLKPEDTALYYCAADRWYTRTGFDYWGQVTQVTVSS”, with “low polyreactivity”; and “QVQHVESGGGLVQAGGSLRLSCAASGRIFGGNAMGWYRQAPGKERELVAAISIGGGSTNYADSVKGRFTISRDNAKNTFYLQMNSLKPEDTAVYYCAARTRYTSVGKLYSWGQGTQVTVSS”, with “high polyreactivity”; and “QVQLVESGGGLDQAGGSLRLSCAASGYIFGSYAMGWYRQAPGKERELVAAITISGGRTYYADSVKGRFTISRDNAKNTVYLQMNSLLPEDTAVYYCAKDGERSRNGRIHYDYWGQGTKVTVSS”, with “low polyreactivity”.

“QVQLVESGGGLVQAGGSLRLSCADSGFIFSLYAMGWYRQAPGKERELVAAISKRGGSTNYADSVKGRFTISRDYAKNTVYLQMNSLKPEDTAVYYCAKARPGFLYDHWVQGTQVTVSS”: the “polyreactivity (PSR sort gate)” value is recorded as “high polyreactivity”. Regarding “QVQLVESGGGLVQAGGSLRLSCAASGSILDVYAMGWYRQAPGKERELVATISWSGGDTYYADSVKGRFTISRDNAKNTVYLQMNSLKPEDTAVYYCNDVFSYYGYDYWGQGTQVTVSS”, the “polyreactivity (PSR sort gate)” value is recorded as “low polyreactivity”. Then “QVQLVESGGGLVQAGGSLRLSCAASGRTFGRYAMGWYRPAPGKERELVAAIRWTGGGTYYADSVKGRFTISRDNAKNTVYLQMNSLKPEDTAVYYCAADDYYYSVYRYEYWGEGTQVTVSS”, with “high polyreactivity”.

As for “QVQLVESGGGLVQEGGSLHLICAASGRIFGKYPMGWYRQAPGKEREFVAAIRSSDGNTYYADSVKGRFTISRDNAKNTVYLQMNSLKPDDTAVYYCNAGRVTRRDTFDYWGQGTQVTVSS”, the “polyreactivity (PSR sort gate)” value is given as “high polyreactivity”. As for “QVQLVESGGGLVKAGGSLRLISAATGSIFTFYAMGWYRQAPGKERELVATINRIGGNTYYADSVKGRFTISRDNAKNTVYLQMNSLKPEDTAVYYCAAKPTDRGYGYGSWGQGTQVSVSS”, the entry is “low polyreactivity”; as for “QVQLVESGGGLVQAGGSLRLSCAASGRIFGAYTMGWYRQAPGKERELVAAISWSGGRTYYADSVKGRFTISRDNAKNTVYLQMNSVKPEDTAVYYCAASYSGRQDRYPHYDYWGQGTQVTVSS”, “low polyreactivity”. As for “QVQLVESAGGLVQAGGSLRLSCAASGYTSSLNAMGWYRQAPGKERELVARITTDGTSTYYADSVKGRFTISRDNAKNTVYLQMNSLKPEDTAVYYCNKRSHLYGNTPYYYWGQGTQVTVSS”, the entry is “low polyreactivity”; as for “QVQLVESGGGLVQAGGSLRLSCAASGSIFRFNPMGWYRQAPGKERELVAAISWSGGLTYYADSVKGRFTISRDNAKNTVSLQMNSLKPEDTAVYYCNAGRRYPLRYDYWGQGTQVTVSS”, “high polyreactivity”.

For “QVQLVESGGGLVQAGGSLRLSCAASGLTFKYYAMGWYRQATGKERELVARISRGGNTNYADSVKGRFTISRDNAKNTVYLQMNSLKPEDTAVYYCAATVRVYDYWGQGTQVTVSS”, the “polyreactivity (PSR sort gate)” value is reported as “high polyreactivity”.

As for “QVQLVESGGGLVQAGGSLRLSCSASERTFYWNTMGWYRQAPGKERELVAAIRTSGGSTYYADSVKGRFTISRDNAKNTVYLQMNSLKPEDTAVYYCAAKYRNYNTRYDYWGQGTQVTVSS”, the “polyreactivity (PSR sort gate)” value was “high polyreactivity”. Then “QVQLVESGGGLFQAGGSLRLSCAASASIIPHNAMGWYRQAPGKERELVASITSRGGITYYADSVKGRFTISRDNAKNTVYLQMNSLKPEDTAVYYCAKDHAYTSAPHQYASEYYYWGQGTQVTVSS”, with “low polyreactivity”; and “QVQLVQSGGGLVQAGGRLSLSCAASGRTIDTYAMGWYRQAPGKERELVAAITRRTYYADSVKGRFTISRDNAKNSVYLQMNSLKPEDTAVDYCAVRFLRKWTSSRHYGYWGQGTQVTLSS”, with “high polyreactivity”. Then “QVQLVESGGGLVQAGGSLRLSCAASGFTFDYYFMGWYRQAPGKERELVAAISLRSGRTYYADSVKGRFTISRDNAKNTVYLQMKSLKPEDTAVYYCAAESRGVGAYYYWGQGTQVTVSS”, with “high polyreactivity”; and “QVQLVESAGGFVQAGGSLRLSCAASGSIFTINAMGWYTQAPGKERELVAGIRWRGGSTYYADSVKGRVTISRDNAKNTVYFQMNSLKPEDTAVYYCNTRCLIRKFDYWGQGTQVTVSS”, with “high polyreactivity”; and “QVQLVESGGGLVQAGGSLRLSCAASGSNLVTNSMGWYRQAPGKERELVATITSSGTSTYYADSVKGRFTISRDNAKNTVYLQMNSLKPEDTAVYYCNADDQFAYVVYLWEYHIVQYDYWGQGTQVTVSS”, with “high polyreactivity”. Turning to “QVQLVESGGGLVQAGGSLRLSCAASGRIYSTNAMRWYRQAPGKEREFVAAIYWIGGSTYYADSVKGRFTISRDNAKNTVYLQMNSLKPEDTAVYYCAAGVYDDYPWSYDIFNLYDYWGQGTQVTVSS”, the “polyreactivity (PSR sort gate)” value is “low polyreactivity”. As for “QVQLVESGGGLVQAGGSLRLSCAASGFTFGINAMGWSRQAPGKERELVASISSGSSTTYADSVKGRFTISRDNAKNTVYLQMNRLKPEDTAVYYCNARPFHIYWRYDYWGQGTQVTVSS”, the entry is “low polyreactivity”. In the case of “QVQLVESGGGLVQAGGSLRLSCGASGSFFYFYSMGWYRQAPGKEREVVAAITDGGSTHYADSVKGRFTISRDNAKNTVDLQMNSLKPEDTAVYYCAAQWHYYLGSGYQYDYWGQGTQVTVSS”, the “polyreactivity (PSR sort gate)” value is given as “low polyreactivity”. As for “QVQLHESGGVLVQAGGSLRLSCAASGTISVHYNMCWYRQEPRQEREFVAGNSTGATTNYADSVKGRFTISRDNENNTVYLQMNSLKPEDTAVYYCAAHIYGQDHFYYWGQGTQVTVSS”, the entry is “low polyreactivity”; as for “QDQLVESGGGLVQAGGSLRLSCAASGRTFLRYTMGWYRQAPGTETELVADITNGGTRTYYADSVKGRFTFSRDYAKNTVYLQMNRLKPEDTAVYYCGARVRYTANYDYWGQGTQVTVSS”, “high polyreactivity”; as for “QDQLVDSGGGLVQAGGSLRLSCAASGRTFYTYAMGWYRQAPGKEREFVARISKRGGGTYYADSVKGRFTISRENAKNTVDLQMNSLIPEDTAVYYCNAGVPSAMDYWGQGTQLTVSS”, “high polyreactivity”. Then “QVQLVESGRGLVQAGGSLRLSCAASGSIFIYYAMGWYRQAPGKERELVAAISFSGARTYYADSVKGRFTISRDNAKNTVYLQMNSLKPEDTAVYYCNGARYSRRWPSEYWGQGTQVTVSS”, with “low polyreactivity”. Then “QVQLQESGGGLVQAGGSLRPRCAAGGTIFVSVNRGWYRHAPGEEREFVASITQGATTNYADSLIGRFTISRDNAKNTVYLQMNCQKPEDTAVYYCAVHESGGITFTYWGQGTQVTVSS”, with “high polyreactivity”; and “QVQLVESGGGLVQAGGSLRLSCAASGSIFDYNAMGWYRQAPGKERELVAAISSGGSTYYADSVKGRFTISRDNAKNTVYLQMNSLKPEDTEVYYCAVKVWLVIQFDYWGQGTPVTVSS”, with “low polyreactivity”. As for “QVQLVESGGGLVQAGGSHRLSCAASGLTLYQYTMGWYRQAPGKERELVAAITTSGSTYYADSVKGRFTISRDNEKNTVYLQMNSLKPEDTAVYYCAAVVYYVDTLSGYRYGYDYWGQCTQVTVSS”, the “polyreactivity (PSR sort gate)” value is listed as “low polyreactivity”.

In the case of “QVQLVESWGGLVQAGGSLRLSCAASGRTFDGNAMGWYRQAPGKEGEFVATISTDGGSTHYADSVKGRFTISRDNAKNTVYLQMNSLKPEDTAVYYCAADTPWYDDNYDYWGQGTQVTVSS”, the “polyreactivity (PSR sort gate)” value is reported as “low polyreactivity”. Then “QVQLVESGGGLVQAGGSLRLSCDASGSILGTYALGWSRQAPGKERELVAAISSSGRTSYADSVKGRFTISRDNAKNTVYLQMNSLKPEDTAVYYCIASNYIVLINDPDAAPWLYDYWGQGTQVTVSS”, with “low polyreactivity”; and “QVQLVESGGGLVQAGGSLRLSCAASGSTFRYYAMGWYRQAPGKERELVAAISSSGGRTYYADSVKGRFTISRDNAKNTVYLQMNSLKPEDTAVYYCAALYLRYHYGTDFDYWGQGTKVTVSS”, with “high polyreactivity”; and “QVQLVESGGGLVQAGGSLRLSCAASGRIFVYNTMGWYRQAPGKERELVAAMSWSGVGTYYADSVKGRFTISRDKAKNTVYLQMNSLKPEDTAVYYCNAWIYYGYFIFDYWGQGTQVTVSS”, with “high polyreactivity”.

Values taken from the nanobody polyreactivity screen of Harvey et al. (2022).
